Laboratory results reported in article PMC7010799.

Columns and labels:
[1] = biological target: human NatA complex (hNAA15/hNAA10) (human) (UniProt Q9BXJ9)
[2] = biological target: human NatA complex (hNAA15/hNAA10) (human) (UniProt Q9BXJ9); assay: ITC; MicroCal iTC200, 20 °C; 25 mM HEPES pH 7.0, 200 mM NaCl, 1 mM DTT; 15 μM hNatA or hNatE in the cell, 150 μM MBP-HYPK in the syringe

Sequence of human NatA complex (hNAA15/hNAA10) (human) (Q9BXJ9 whole entry, chain 1 of 2): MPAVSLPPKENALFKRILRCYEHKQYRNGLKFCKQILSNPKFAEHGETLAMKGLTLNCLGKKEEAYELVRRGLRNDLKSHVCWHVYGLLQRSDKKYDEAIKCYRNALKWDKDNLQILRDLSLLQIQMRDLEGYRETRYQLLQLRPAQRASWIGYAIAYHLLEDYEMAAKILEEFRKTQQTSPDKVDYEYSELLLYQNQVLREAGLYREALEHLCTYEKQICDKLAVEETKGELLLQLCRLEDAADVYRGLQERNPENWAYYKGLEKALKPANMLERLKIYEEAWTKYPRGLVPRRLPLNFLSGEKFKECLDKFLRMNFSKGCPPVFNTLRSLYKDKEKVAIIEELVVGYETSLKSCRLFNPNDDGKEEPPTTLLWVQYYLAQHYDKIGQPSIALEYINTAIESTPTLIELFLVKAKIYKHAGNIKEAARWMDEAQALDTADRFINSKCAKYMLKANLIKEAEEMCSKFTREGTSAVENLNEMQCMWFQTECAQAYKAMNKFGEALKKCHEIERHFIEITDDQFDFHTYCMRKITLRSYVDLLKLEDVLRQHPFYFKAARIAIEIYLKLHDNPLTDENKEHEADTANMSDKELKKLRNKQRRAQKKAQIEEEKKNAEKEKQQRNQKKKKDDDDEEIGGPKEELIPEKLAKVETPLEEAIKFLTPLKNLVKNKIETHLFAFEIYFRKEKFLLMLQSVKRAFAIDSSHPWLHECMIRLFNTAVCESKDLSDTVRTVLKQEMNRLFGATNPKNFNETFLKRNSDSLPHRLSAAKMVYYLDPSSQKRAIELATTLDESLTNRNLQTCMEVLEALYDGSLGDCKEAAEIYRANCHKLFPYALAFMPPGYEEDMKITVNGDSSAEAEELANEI
Sequence of human NatA complex (hNAA15/hNAA10) (human) (P41227 whole entry, chain 2 of 2, further chain): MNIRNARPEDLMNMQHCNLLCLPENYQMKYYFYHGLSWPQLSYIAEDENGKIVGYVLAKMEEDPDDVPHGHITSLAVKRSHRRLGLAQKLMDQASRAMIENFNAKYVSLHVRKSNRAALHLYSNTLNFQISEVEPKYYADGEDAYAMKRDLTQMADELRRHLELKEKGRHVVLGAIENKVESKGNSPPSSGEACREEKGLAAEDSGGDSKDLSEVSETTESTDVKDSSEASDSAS
Sequence of maltose-binding protein (MBP) tagged HYPK (from UniProt Q9NX55 1-121) (natural protein; other documents disagree on this pair) (Q9NX55 whole entry): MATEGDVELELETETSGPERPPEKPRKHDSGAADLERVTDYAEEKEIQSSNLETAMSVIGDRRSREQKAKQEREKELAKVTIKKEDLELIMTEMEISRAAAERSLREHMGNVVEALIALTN
Sequence of maltose-binding protein (MBP) tagged HYPK (from UniProt Q9NX55 1-121) (natural protein) (Q9NX55 whole entry): as above

inhibition of hNatA (100 nM) acetylation activity against SASE peptide, MBP-HYPK titrated [1] [%]	Kd [2] [µM]	Substance
90	–	maltose-binding protein (MBP) tagged HYPK (from UniProt Q9NX55 1-121) (natural protein)
–	0.0299	maltose-binding protein (MBP) tagged HYPK (from UniProt Q9NX55 1-121) (natural protein; other documents disagree on this pair)
